Reference: US20230272055A1, “ANTI-MUTANT CALRETICULIN (CALR) ANTIBODIES AND USES THEREOF” (Incyte Corporation, priority 2021, published 2023)

System: BaF3 cells expressing MPL/mutCALR Type 1
Assay: Example 16 inhibition of cell proliferation, CellTiter-Glo 72 hours
Type: cell-based
Description: The ability of the five antibodies shown here to inhibit cell proliferation was tested. Inhibition of cell proliferation was assessed using engineered BaF3 cells expressing MPL/mutCALR Type 1. Cells were plated at 5,000 cells per well in RPMI 1640+2% FBS, antibodies were added and incubated for 72 hours, followed by assessment of cell viability using the CellTiter-Glo Luminescent Cell Viability Assay (Promega, Madison, Wis.) and Top Count (Perkin Elmer, Boston, Mass.) or Pherastar (BMG Labtech, Ortenberg, Germany) for luminescence quantification. […] The data shown in FIGS. 21A and 21B were compiled from different experiments.

B1: AB4: anti-mutCALR antibody including VH and VL regions of antibody 8B2-H6 from WO2016087514 fused to human constant regions (antibody)
heavy: EVQLKQSGPELVKTGASVKISCKASGYSFTGYYIHWVKQSHGKSLEWIGYISCYNGASSYNQKFKGKATFTVDTSSSTAYMQFNSLTSGDSAVYYCASSMDYWGQGTSVTVSSASTKGPSVFPLAPSKSTSGGTAALGCLVKDYFPEPVTVSWNSGALTSGVHTFPAVLQSSGLYSLSSVVTVPSSSLGTQTYICNVNHKPSNTKVDKKVEPKSCDKTHTCPPCPAPELLGGPSVFLFPPKPKDTLMISRTPEVCVVVDVSHEDPEVKFNWYVDGVEVHNAKTKPREEQYNSTYRVVSVLTVLHQDWLNGKEYKCKVSNKALPAPIEKTISKAKGQPREPQVYTLPPSREEMTKNQVSLTCLVKGFYPSDIAVEWESNGQPNNYKTTPPVLDSDGSFFLYSKLTVDKSRWQQGNVFSCSVMHEALHNHYTQKSLSLSPG
light: DVVMTQTPLTLSVTIGQPASISCKSSQSLLDSDGKTYLNWLLQRPGQSPKRLIYLVSKLDSGVPDRFTGSGSGTDFTLKISRVEAEDLGVYHCWQGTHFPYTFGGGTKLEIKRTVAAPSVFIFPPSDQLKSGTASVVCLLNNFYPREAKVQWKVDNALQSGNSQESVTEQDSKDSTYSLSSTLTLSKADYEKHKVYACEVTHQGLSSPVTKSFNRGEC
inhibition of cell proliferation (72 hours, FIG. 21B, Table 16): no functional activity
IC50 for anti-mutCALR antibody mediated inhibition of cell proliferation (BaF3 cells expressing MPL/mutCALR Type 1, 72 hours, CellTiter-Glo): >60 µg/mL
